Read-outs that look alike come from different tables or passages of the source.
Columns and labels:
Relipidated TF [1] = biological target: T1, Relipidated TF (UniProt P13726 33-295, limits assumed); experiment: cell-based or functional assay
Relipidated TF [2] = biological target: T1, Relipidated TF; experiment: cell-based or functional assay; remark: listed apart in the source
[3] = biological target: T2, Macaca mulatta TF on RF/6A cells (Macaca mulatta (protein sequence stated …, UniProt P13726 33-294 (human entry))); experiment: flow cytometry, IgG1 titrated on TF-positive Macaca mulatta RF/6A cells, 4-parameter fit
T2 construct: Endogenous TF of the RF/6A cell line; also called TF-positive Macaca mulatta RF/6A cells; cynomolgus TF
T2 chain: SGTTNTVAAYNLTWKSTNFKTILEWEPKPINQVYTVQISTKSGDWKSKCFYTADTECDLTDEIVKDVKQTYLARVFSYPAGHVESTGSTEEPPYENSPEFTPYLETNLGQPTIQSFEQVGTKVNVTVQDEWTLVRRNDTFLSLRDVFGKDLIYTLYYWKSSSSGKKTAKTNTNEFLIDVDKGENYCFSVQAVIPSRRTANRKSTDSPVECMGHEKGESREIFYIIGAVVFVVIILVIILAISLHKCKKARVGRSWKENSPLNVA
Experimental: (§1) After 2 washes, dead cells were labeled with TO-PRO-3 Iodide (ThermoFisher Scientific) and samples were analyzed on a CytoFLEX flow cytometer (Beckman Coulter, Brea, CA, USA) or Novocyte flow cytometer (ACEA Biosciences, San Diego, CA, USA). The median fluorescence intensities (MFIs) at each dilution were plotted and cell EC₅₀'s were derived using a 4-parameter binding model in Prism (GraphPad, La Jolla, CA, USA).

E. coli-derived TF = biological target: T3, E. coli-derived TF (human (Example 17 does not restate the …, UniProt P13726 33-251)); experiment: protein ELISA, plate coated with E. coli-derived TF-His, antibody titrated, HRP secondary, luminescence
T3 construct: also called E. coli-derived TF-His; E. coli-derived TF protein
Experimental: (§2) Plates coated with Expi293- or E. coli-derived TF-His were incubated with increasing concentrations of antibodies.

Expi293-derived TF-His = biological target: T4, Expi293-derived TF-His (human (Example 17 does not restate the …, UniProt P13726 33-251)); experiment: protein ELISA, plate coated with Expi293-derived TF-His, antibody titrated, HRP secondary, luminescence
T4 construct: Glycosylated TF ECD-His6 from Expi293 cells; also called Expi293-derived TF protein; TF ECD-His6
Experimental: as §2

human TF ECD-His6 [4] = biological target: T5, human TF ECD-His6 (human, UniProt P13726 33-251); experiment: BLI (ForteBio Octet)
T5 construct: Expi293-derived; Biacore used TF-His; also called TF-His; hTF
Experimental: (§3) Kinetic measurements for the anti-TF antibodies were conducted on an Octet QK384 (Pall ForteBio, Fremont, CA, USA) or a Biacore (GE Healthcare Bio-Sciences).
(§4) Briefly, ForteBio affinity measurements were performed by loading IgGs on-line onto AHC sensors. Sensors were equilibrated off-line in assay buffer for 30 min and then monitored on-line for 60 seconds for baseline establishment. Sensors with loaded IgGs were exposed to 100 nM antigen (human, cynomolgus, or mouse TF) for 3 min, afterwards they were transferred to assay buffer for 3 min for off-rate measurement. Alternatively, binding measurements were obtained by loading biotinylated TF monomer on SA sensors followed by exposure to 100 nM antibody Fab in solution. Kinetic data was analyzed and fitted using a 1:1 Langmuir binding model and the KD was calculated by dividing the koff by the kₒₙ.

[5] = biological target: T6, cynomolgus monkey TF ECD-His6 (cynomolgus monkey (Macaca fascicularis)); experiment: BLI (ForteBio Octet)
T6 construct: Expi293-derived; also called TF-His; cTF
T6 chain: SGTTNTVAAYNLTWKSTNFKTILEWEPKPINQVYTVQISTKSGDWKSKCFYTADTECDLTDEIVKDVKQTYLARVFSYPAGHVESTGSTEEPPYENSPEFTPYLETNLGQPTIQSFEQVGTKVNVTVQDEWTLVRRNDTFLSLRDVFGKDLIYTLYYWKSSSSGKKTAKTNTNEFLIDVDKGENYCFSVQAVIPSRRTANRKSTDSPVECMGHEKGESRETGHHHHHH
Experimental: as §3, §4

mouse TF ECD-His6 = biological target: T7, mouse TF ECD-His6 (mouse, UniProt P20352 29-251); experiment: BLI (ForteBio Octet)
T7 construct: Expi293-derived; also called TF-His; mTF
Experimental: as §3, §4

human TF ECD-His6 [6] = biological target: T5, human TF ECD-His6; experiment: SPR (Biacore), TF-His over coupled antibody
Experimental: as §3
(§5) For the Biacore-based measurements, the antibody was covalently coupled to a CM5 or C1 chip using an amine-coupling kit (GE Healthcare Bio-Sciences). Association between the anti-TF antibodies and a five-point three-fold titration of TF-His starting at 25 to 500 nM was measured for 300 sec. Subsequently, dissociation between the anti-TF antibody and TF-His was measured for up to 1800 sec. Kinetic data was analyzed and fitted globally using a 1:1 binding model.

[7] = biological target: T6, cynomolgus monkey TF ECD-His6; experiment: SPR (Biacore), TF-His over coupled antibody
Experimental: as §3, §5

[8] = biological target: T8, human Tissue Factor on human TF-positive cells (human, UniProt P13726 33-295); experiment: flow cytometry, antibody titration on HCT-116 cells (endogenous human TF), 4-parameter fit of MFI
T8 construct: also called hTF; CD142
Experimental: as §1

[9] = biological target: T9, full-length mouse TF with a C-terminal FLAG tag on Flp-In-CHO cells (mouse, UniProt P20352 29-294); experiment: flow cytometry on CHO cells expressing mouse TF, MFI at 250 nM antibody
T9 construct: also called CHO-mTF; mouse TF-positive CHO cells
Experimental: as §1

[10] = biological target: T9, full-length mouse TF with a C-terminal …; experiment: flow cytometry, antibody titration on CHO cells expressing mouse TF, 4-parameter fit of MFI
Experimental: as §1

[11] = biological target: T9, full-length mouse TF with a C-terminal …; experiment: flow cytometry on CHO cells expressing mouse TF, MFI at 250 nM antibody; remark: listed apart in the source
Experimental: as §1

[12] = biological target: T9, full-length mouse TF with a C-terminal …; experiment: flow cytometry, antibody titration on CHO cells expressing mouse TF, 4-parameter fit of MFI; remark: listed apart in the source
Experimental: as §1

[13] = biological target: T8, human Tissue Factor on human …; experiment: flow cytometry, antibody titration on HCT-116 cells (endogenous human TF), 4-parameter fit of MFI; remark: listed apart in the source
Experimental: as §1

B1: 39A (antibody, human IgG1, V domains shown)
VH: QVQLVQSGAEVKKPGSSVKVSCKASGGTFSSNAIGWVRQAPGQGLEWMGSIIPIIGFANYAQKFQGRVTITADESTSTAYMELSSLRSEDTAVYYCARDSGYYYGASSFGMDVWGQGTTVTVSS
VL: EIVMTQSPATLSVSPGERATLSCRASQSVSSNLAWYQQKPGQAPRLLIYGASTRATGIPARFSGSGSGTEFTLTISSLQSEDFAVYYCEQYNNLPLTFGGGTKVEIK
notes: Human IgG1; also called antibody designated 39A
- % ETP at 10 nM Ab (TGA without antibody pre-incubation) (Relipidated TF [1]): 58%
- % Peak IIa at 10 nM Ab (TGA without antibody pre-incubation) (Relipidated TF [1]): 24%
- % Peak IIa at 50 nM Ab (TGA without antibody pre-incubation) (Relipidated TF [1]): 8%
- % Peak IIa at 100 nM Ab (TGA without antibody pre-incubation) (Relipidated TF [1]): 6%
- ETP at 10 nM Ab (TGA without antibody pre-incubation) (Relipidated TF [1]): 1330 nM·min
- Lag Time at 10 nM Ab (TGA without antibody pre-incubation) (Relipidated TF [1]): 12.4 min
- Lag Time at 50 nM Ab (TGA without antibody pre-incubation) (Relipidated TF [1]): 33.1 min
- Lag Time at 100 nM Ab (TGA without antibody pre-incubation) (Relipidated TF [1]): 38.1 min
- Peak IIa at 10 nM Ab (TGA without antibody pre-incubation) (Relipidated TF [1]): 84 nM
- Peak IIa at 50 nM Ab (TGA without antibody pre-incubation) (Relipidated TF [1]): 29 nM
- Peak IIa at 100 nM Ab (TGA without antibody pre-incubation) (Relipidated TF [1]): 22 nM
- ttPeak at 10 nM Ab (TGA without antibody pre-incubation) (Relipidated TF [1]): 20.7 min
- ttPeak at 50 nM Ab (TGA without antibody pre-incubation) (Relipidated TF [1]): 43.2 min
- ttPeak at 100 nM Ab (TGA without antibody pre-incubation) (Relipidated TF [1]): 48.3 min
- % Peak IIa at 10 nM Ab (TGA with 10 min antibody pre-incubation) (Relipidated TF [2]): 11%
- % Peak IIa at 50 nM Ab (TGA with 10 min antibody pre-incubation) (Relipidated TF [2]): 8%
- % Peak IIa at 100 nM Ab (TGA with 10 min antibody pre-incubation) (Relipidated TF [2]): 6%
- Lag Time at 10 nM Ab (TGA with 10 min antibody pre-incubation) (Relipidated TF [2]): 20.9 min
- Lag Time at 50 nM Ab (TGA with 10 min antibody pre-incubation) (Relipidated TF [2]): 29 min
- Lag Time at 100 nM Ab (TGA with 10 min antibody pre-incubation) (Relipidated TF [2]): 32.1 min
- Peak IIa at 10 nM Ab (TGA with 10 min antibody pre-incubation) (Relipidated TF [2]): 30 nM
- Peak IIa at 50 nM Ab (TGA with 10 min antibody pre-incubation) (Relipidated TF [2]): 21 nM
- Peak IIa at 100 nM Ab (TGA with 10 min antibody pre-incubation) (Relipidated TF [2]): 17 nM
- ttPeak at 10 nM Ab (TGA with 10 min antibody pre-incubation) (Relipidated TF [2]): 30.8 min
- ttPeak at 50 nM Ab (TGA with 10 min antibody pre-incubation) (Relipidated TF [2]): 39.7 min
- ttPeak at 100 nM Ab (TGA with 10 min antibody pre-incubation) (Relipidated TF [2]): 43.2 min
- EC50 [3]: 0.27 nM
- EC50 (E. coli-derived TF): 0.34 nM
- EC50 (Expi293-derived TF-His): 0.45 nM

B2: 43B (antibody, human IgG1, V domains shown)
VH: QVQLQESGPGLVKPSQTLSLTCTVSGGSISSGQYWSWIRQHPGKGLEWIGEIYYSGSTRYNPSLKSRVTISVDTSKNQFSLKLSSVTAADTAVYYCARDAPYYYGGGYYYYMDVWGKGTTVTVSS
VL: EIVLTQSPGTLSLSPGERATLSCRASQSVSSSYLAWYQQKPGQAPRLLIYGASSRATGIPDRFSGSGSGTDFTLTISRLEPEDFAVYYCQQVGVVPYTFGGGTKVEIK
notes: Human IgG1; also called antibody designated 43B
- Kd (human TF ECD-His6 [4]): 2.4 nM
- Kd [5]: 3.4 nM
- Kd (mouse TF ECD-His6): 161 nM
- Kd (human TF ECD-His6 [6]): 1.75 nM
- Kd [7]: 5.64 nM
- EC50 [8]: 0.559 nM

B3: 43D (antibody, human IgG1, V domains shown)
VH: QVQLQQWGAGLLKPSETLSLTCAVYGGSLSGYYWSWIRQPPGKGLEWIGEIGASGSTRYNPSLKSRVTISVDTSKNQFSLKLSSVTAADTAVYYCARDTPYYYEGGYYYYMDVWGKGTTVTVSS
VL: EIVLTQSPGTLSLSPGERATLSCRASQSVSSSYLAWYQQKPGQAPRLLIYGASSRATGIPDRFSGSGSGTDFTLTISRLEPEDFAVYYCQQVGVVPYTFGGGTKVEIK
notes: Human IgG1; also called antibody designated 43D
- Kd (human TF ECD-His6 [4]): 3.84 nM
- Kd [5]: 4.12 nM
- Kd (mouse TF ECD-His6): 281 nM
- Kd (human TF ECD-His6 [6]): 2.09 nM
- Kd [7]: 5.66 nM
- MFI at 250 nM [9]: 1.3e+07
- EC50 [10]: 2.9 nM
- EC50 [8]: 0.147 nM

B4: 43B1 (antibody, human IgG1, V domains shown)
VH: QVQLQESGPGLVKPSQTLSLTCTVSGGSISSGQYWSWIRQHPGKGLEWIGEIYYSGSTRYNPSLKSRVTISVDTSKNQFSLKLSSVTAADTAVYYCARDAPYYYGGGYYYYMDVWGKGTTVTVSS
VL: EIVLTQSPGTLSLSPGERATLSCRASESVDSSYLAWYQQKPGQAPRLLIYGASTRQTGIPDRFSGSGSGTDFTLTISRLEPEDFAVYYCQQAGVVPYTFGGGTKVEIK
notes: Human IgG1; also called antibody designated 43B1
- Kd (mouse TF ECD-His6): 72.1 nM
- MFI at 250 nM [9]: 5.3e+06
- EC50 [10]: 255 nM

B5: 43B7 (antibody, human IgG1, V domains shown)
VH: QVQLQESGPGLVKPSQTLSLTCTVSGGSISSGQYWSWIRQHPGKGLEWIGEIYYSGSTRYNPSLKSRVTISVDTSKNQFSLKLSSVTAADTAVYYCARDAPYYYGGGYYYYMDVWGKGTTVTVSS
VL: EIVLTQSPGTLSLSPGERATLSCRASESVDSSYLAWYQQKPGQAPRLLIYGADSRATGIPDRFSGSGSGTDFTLTISRLEPEDFAVYYCQQDGVVPYTFGGGTKVEIK
notes: Human IgG1; also called antibody designated 43B7
- Kd (human TF ECD-His6 [4]): 0.86 nM
- Kd [5]: 0.94 nM
- Kd (mouse TF ECD-His6): 360 nM
- Kd (human TF ECD-His6 [6]): 0.14 nM
- Kd [7]: 0.24 nM
- MFI at 250 nM [9]: 800000
- EC50 [8]: 0.255 nM

B6: 25A5 (antibody, human IgG1, V domains shown)
VH: QVQLVQSGAEVKKPGASVKVSCKASGYTFDVYGISWVRQAPGQGLEWMGWIAPYSGNTNYAQKLQGRVTMTTDTSTSTAYMELRSLRSDDTAVYYCARDAGTYSPFGYGMDVWGQGTTVTVSS
VL: DIQMTQSPSTLSASVGDRVTITCRASESISNWLAWYQQKPGKAPKLLIYKAYSLEYGVPSRFSGSGSGTEFTLTISSLQPDDFATYYCQQFQKLPPFTFGGGTKVEIK
notes: Human IgG1; also called antibody designated 25A5
- Kd (human TF ECD-His6 [4]): 0.64 nM
- Kd (mouse TF ECD-His6): 188 nM
- Kd (human TF ECD-His6 [6]): 0.08 nM
- Kd [7]: 0.04 nM
- MFI at 250 nM [11]: 8e+06
- EC50 [12]: 11 nM
- EC50 [13]: 0.088 nM

B7: 25G (antibody, human IgG1, V domains shown)
VH: QVQLVQSGAEVKKPGASVKVSCKASGYTFRSYGISWVRQAPGQGLEWMGWVAPYNGNTNYAQKLQGRVTMTTDTSTSTAYMELRSLRSDDTAVYYCARDAGTYSPYGYGMDVWGQGTTVTVSS
VL: DIQMTQSPSTLSASVGDRVTITCRASQSISSWLAWYQQKPGKAPKLLIYKASSLESGVPSRFSGSGSGTEFTLTISSLQPDDFATYYCQQFQSLPPFTFGGGTKVEIK
notes: Human IgG1; also called antibody designated 25G
- Kd (human TF ECD-His6 [4]): 21.9 nM
- Kd [5]: 17.5 nM
- Kd (mouse TF ECD-His6): 114 nM
- Kd (human TF ECD-His6 [6]): 23 nM
- Kd [7]: 18 nM
- MFI at 250 nM [11]: 1.6e+07
- EC50 [12]: 3.9 nM
- EC50 [13]: 0.134 nM

From patent US20250361322A1 (ICONIC THERAPEUTICS, published 2025)
